According to publication PMC8252471, “Rerouting and Improving Dauc‐8‐en‐11‐ol Synthase from Streptomyces venezuelae to a High Yielding Biocatalyst” (Chemistry (Weinheim an Der Bergstrasse, Germany), 2021):
Where a chain is given by its changes, count along the chain named. In names and notes the source's numbering stands.

B1: DcS (dauc-8-en-11-ol synthase; formerly isodauc-8-en-11-ol synthase, IdS) (Streptomyces venezuelae ATCC 10712) (protein)
chain: MTVRAVELPQLWMPYPLRVNPYLSALREESETWAREMGMLGGEGPSARGAIWTRSQFHAMTVELLTAWTLPDASLAGLRLNHRFNIWALAWDDYFASTFKQTGDLPGALDFTARLHAFLRPEADARSPEPVNAVERGIADLQKHLFPPRLAHWRQEFNLALAHYIDAGVQELTNSRGGRVPHLIEYAPFRRESFAAHTAPYSVELATGARIPEQLRHTRTVHALLDAFMDVMGLANDVASYEREVHEERDVNNLVVVIGTSLGITLHQAVPAALHMVNARMRDFEHLRHHELPPLVDRFGLRPDEREELETWLGGAASFLSGLHAWYTGAPRYAPTDHSVPEQRQRGGSEGAADRHAPAASSLARGAEAQTCGPTASAGSA
notes: motifs: D92 in 92DDYFA, R190, N236 in 236NDVASYERE, H58, H197, Y241
B2: DcS (dauc-8-en-11-ol synthase; formerly isodauc-8-en-11-ol synthase, IdS) (Streptomyces venezuelae ATCC 10712; H197F/Y241F) (protein)
chain: B1 chain with H197F, Y241F
notes: motifs: D92 in 92DDYFA, R190, N236 in 236…, H58, H197, Y241

Substrate: CC(C)=CCC/C(C)=C/CC/C(C)=C/CO[P@@](=O)(O)OP(=O)(O)O
Experiment: enzyme kinetics
Type: biochemical, Streptomyces venezuelae

Protein	Km	kcat
B1	2.90 ± 0.02 mM	35.6 ± 2.9 s⁻¹
B2	5.95 ± 0.02 mM	65.5 ± 8.6 s⁻¹
